Data published in the DeepSol protein solubility set.

assay: soluble on expression in E. coli; label from the status in PepcDB or PDB records

**Q.** With “MGSDKIHHHHHHMSTPQFGRKVSLIIGQDSGDALDLSELRFRFDVRRGDLQTPNSARVRVYNVSPDTARRAQREFSRLVLQAGYPGNFGIIFDGTIKQVRRGRENQTDTYLDITAADGDSAYNFAVVNTTLAAGSTPSDHVAAACTAMNPYGVTQGYLPSLPSNPLPRGKVMFGMAREFMRWTARTCQTVWSIQDGKAIMVPETSYMPGEIPVITAETGMVGLPEQTQNGIAIKMLLNPSVKIGRLIQIDNASVQQYEYSLNVGQQAQNERIEQQAKLQDDGFYYVMLAEHYGDTRGNDFYTDVICLAADVTVLPDSFRDKAAVPPDNVIKRFG” as the sequence, how does the “soluble on expression in E. coli” value read?
**A.** not soluble

**Q.** Which “soluble on expression in E. coli” value does the source give for “MDVNPTLLFLKVPAQNAISTTFPYTGDPPYSHGTGTGYTMDTVNRTHQYSEKGRWTTNTETGAPQLNPIDGPLPEDNEPSG” here?
**A.** soluble

**Q.** With “MSGIIATYLIHDDSHNLEKKAEQIALGLTIGSWTHLPHLLQEQLKQHKGNVIHVEELAEHEHTNSYLRKKVKRGIIKIEYPLLNFSPDLPAILTTTFGKLSLDGEVKLIDLTFSDELKKHFPGPKFGIDGIRNLLQVHDRPLLMSIFKGMIGRNIGYLKTQLRDQAIGGVDIVKDDEILFENALTPLTKRIVSGKEVLQSVYETYGHKTLYAVNLTGRTFDLKENAKRAVQAGADILLFNVFAYGLDVLQSLAEDDEIPVPIMAHPAVSGAYSASKLYGVSSPLLLGKLLRYAGADFSLFPSPYGSVALEKEEALAISKYLTEDDASFKKSFSVPSAGIHPGFVPFIVRDFGKDVVINAGGGIHGHPNGAQGGGKAFRTAIDATLQNKPLHEVDDINLHSALQIWGNPSYEVKL” as the sequence, how does the “soluble on expression in E. coli” value read?
**A.** soluble

**Q.** Which “soluble on expression in E. coli” value does the source give for “MAEIVLTQSPGTQSLSPGERATLSCRASQSVGNNKLAWYQQRPGQAPRLLIYGASSRPSGVADRFSGSGSGTDFTLTISRLEPEDFAVYYCQQYGQSLSTFGQGTKVEVKLVPR” here?
**A.** soluble

**Q.** With “MSLRAQGEVVLSIDGEPVKRSEFEYYFRKSSHRTPLSFLPSFINYKLKVRYAHDMGIDTLSVFRRQVDWYRGKLLRTYLADAEKEEQAARRLYLQGEQRLQANDWIKIAHISKYLSQNASRQEEMRVRQQMDSVYEALREGADFATLARRYSDDEACKNVGGVLPWMPVNKNMQEWIDKLESLERNKISAPFYSPMGIHIVKWIDRRQGVSFEEKREQLLNYLEKNGNCTWKELSAEQKEELEFRVQELQDGLLAAYLSQKYQSGDEAWNEDDLERFFKQHKSDYAWELPHYRGAVIHCKDRKTASAIKKQLKKKPVSQWKDILHTLTGDDASSKVRMEAGVFQIGTNRYIDKLVFKCGSFQPEPDLPYTFVMGKKLKKGPESYEDVREAVVKDYLTVYEDAWLKDLKRKYKVEINQEVLKTVNNNGSEGHHHHHH” as the sequence, how does the “soluble on expression in E. coli” value read?
**A.** not soluble

**Q.** Which “soluble on expression in E. coli” value does the source give for “MAHHHHHHMSTKLEQENCKLLENIEVISTWSSNNDSNMESFVEPSELDIKDDNEKCLNILNDNLIYDFEKEEDEKKKKNKKNEKSSSNIDLEYDTMKKYIKCIIHNKEKEEFYSFMKYICDSDLFLTFVQLFLDLIKNKDSNLNPHDYLINFFQINIEEENNTNSIKRKNLIKENNFYKKQNEELKKQINIIQVEIMDMKKKNMCNYITNFFFKDNKQEYDASKIFQKVNLYYENIRIEPPFYFTKDTFNLFINYLSDNKRNYIYNIITDMYNIYETNHTLFITKFYKKLTNFIEFYRSFDK” here?
**A.** not soluble

**Q.** Which “soluble on expression in E. coli” value does the source give for “MKVYKDVFTNDEVCSDSYNQEDPFGIADFREIAFEVKSNKRIKGNDDYGIADNSEEAVDGMGADVEQVIDIVDSFQLTSTSLSKKEYSVYIKNYMQKILKYLEEKKPDRVDVFKTKAQPLIKHILTNFDDFEFYMGESLDMDAGLTYSYYKGEEVTPRFVYISDGLYEEKF” here?
**A.** soluble

**Q.** Which “soluble on expression in E. coli” value does the source give for “MAHHHHHHGAYDVARVRGLHPSLGDGWVHFDAPAGMLIPDSVATTVSTAFRRSGASTVGAHPSARRSAAVLDAAREAVADLVNADPGGVVLGADRAVLLSLLAEASSSRAGLGYEVIVSRLDDEANIAPWLRAAHRYGAKVKWAEVDIETGELPTWQWESLISKSTRLVAVNSASGTLGGVTDLRAMTKLVHDVGALVVVDHSAAAPYRLLDIRETDADVVTVNAHAWGGPPIGAMVFRDPSVMNSFGSVSTNPYATGPARLEIGVHQFGLLAGVVASIEYLAALDESARGSRRERLAVSMQSADAYLNRVFDYLMVSLRSLPLVMLIGRPEAQIPVVSFAVHKVPADRVVQRLADNGILAIANTGSRVLDVLGVNDVGGAVTVGLAHYSTMAEVDQLVRALASLG” here?
**A.** soluble

**Q.** For “MGSDKIHHHHHHMIVPQEIYHPLYEDKEKFIILITGGRGSGKSFNASTFIERLTFELTPVEKIVHQILYTRYTMVSAGMSIIPEMMEKIELDGTTKYFKTTKTDIVNKMTKSRIMFRGIKTSSGNQTAKLKSIQGITTFVCDEAEEWTNEEEFDKIMLSIRKKGIQNRIIIIMNPCDSNHFIYKKYIENTHKLVEIDGVQVQISTHPNVLHIHTTYLDNLENLSPEFLKEVEDMKVNNPEKYAHVVIGRWADVAEGAVFKKWGIVDEFPAWAKKVAIGQDFGYTHDPSASIRCGIVDNALYLDEIDYRTGLLSSDIIKSLRPWGLKVIADSADPRLIQEIHNGGVKIYAVEKGAGSVNAGLDKMQGMEMYITKRSYNLQREYRKYVWAKDKDGNYINEPEDHDNHGIDAVRYYVLGELLGKIQKPKDLTGIFTH”, which “soluble on expression in E. coli” value is on record?
**A.** not soluble

**Q.** With “MSLEDGYKVEVGKNAYLPCSYTLPTSGTLVPMCWGKGFCPWSQCTNELLRTDERNVTYQKSSRYQLKGDLNKGDVSLIIKNVTLDDHGTYCCRIQFPGLMNDKKLELKLDIKAALVPR” as the sequence, how does the “soluble on expression in E. coli” value read?
**A.** soluble

**Q.** Which “soluble on expression in E. coli” value does the source give for “MGSDKIHHHHHHMKKLDLDVLAMVVAVAESGSFAQGAQAVHRSPSAVSMQIKALEDALGKPLFIRDTRNVTATDDGRMLAEYGRRMLAMRDEAWASVVRPEIRGRVTIGVPDDYISSLLPQVLGKFAAMHPRVEVRVIGQPSSALVPMLKDNTVDLACLTRIKGVTGELIRMEPLVWVGSPKRNVWEERPLPVAFFTHGGSMARDHAVKALNRRKIPYRMSYESPSHLGLLSMVEAGLAVAPLARCCIPDHLVQLSESHGLPSLGELEVVLARSAKSARPPCDYLAEQILDEWRT” here?
**A.** not soluble

**Q.** Which “soluble on expression in E. coli” value does the source give for “MAHHHHHHMVLRPRPLKHSLLRRGRINPAATHREVSLPILLTLVTCPIPRPMQVDRSLWAEGPLQAQHPHSPTHLSRQQVECMLLAGVPPRAFRLQDKPSKVSETAKEAPQGDEEGEPRAQHEADHTTKGGGDDFLDKNGNEKREPPAGSQTAPLPDGGKNAHYYFFLLLPARPATRCHLSADEVVEQRQKFSAMKQLPLGELSVTEVLLNAQPLAHSQGAWTS” here?
**A.** not soluble

**Q.** Which “soluble on expression in E. coli” value does the source give for “MGSDKIHHHHHHMDRIGIDTWANISAEGWSSLLLGNGASIAIHKEFAYPTLHGIADAKGLLATTAPIFAKLGTTDFEHVLLACWYAEHVNGALGTPSAAISAAYEEVRTALIEAVHSVHPVHADVAADLQRVGAFASAFPTVVSLNYDITLYWAMLLFNAANGSWFKDAFHDGEFQTDWEYLRRPYGHAAGATLVFYPHGSLAVARDYLGDETKLSVGAGAAGDLLGTITRRWASGHYVPVFVSEGTSHQKVAAIRRSHYLTNVYEEVLPALGESLVVYGWSFDERDQHVLAAIAANPPKRMAVSVFTGQPDGDQQAFCLQVLKAVGRSLPGTEVTFFDSRSPGCWNNP” here?
**A.** not soluble

**Q.** Which “soluble on expression in E. coli” value does the source give for “MGNRLSKIYTRTGDRGETGLAGGRRVPKSHPRIEAIGAVDELNSQLGLLLAELLEARGAHPGLEEIVQALAPVQHRLFDLGGELAMPEYRALDETEVARLESCIDRWNDELGPLKNFILPGGSRPVAQAHVCRSLARSAERRCQALDQEETLEGVGLRYLNRLSDLLFVAARAIARRQGVAEILWEAAAKPD” here?
**A.** not soluble

**Q.** With “MPGELDTFKEAVKIIIEKEFPELLSPARHMMRAIVIDARQSDCDLQVLAADGSPHPSFPPLANVLVPVRKSVQIGQKVRIGFYYGDPAMPYIDEVLSNGEA” as the sequence, how does the “soluble on expression in E. coli” value read?
**A.** not soluble

**Q.** Which “soluble on expression in E. coli” value does the source give for “MASLLNARTAVITGGAQGLGLAIGQRFVAEGARVVLGDVNLEATEVAAKRLGGDDVALAVRCDVTQADDVDILIRTAVERFGGLDVMVNNAGITRDATMRTMTEEQFDQVIAVHLKGTWNGTRLAAAIMRERKRGAIVNMSSVSGKVGMVGQTNYSAAKAGIVGMTKAAAKELAHLGIRVNAIAPGLIRSAMTEAMPQRIWDQKLAEVPMGRAGEPSEVASVAVFLASDLSSYMTGTVLDVTGGRFI” here?
**A.** soluble

**Q.** For “MAHHHHHHMQRWPCRRCCRAATLGSRTFVLVRRRAPSAFITTASHASSGAAPPWTVAHQRVCIIIPPVEKLTTPPSPRLSRRYVDSQTLDDSRTQQADAQEPDHFRFAIKNSERGLLDHGVTPDAIAFIAEAEEEYRASSSYLHDRPGGAGMPESETHVDEVTGQQTTTTRIAAPFGETYVPSNRERFAERQRVGELSRQLNLVDKPFMLDEHAQLNLRKERQLCELLASPMPQLAKADEVAHFLLNGVYAQNLALQPRSCESVMLLYSHASFLRRLEGPTKQLTGRAHDAARLAAPSSGADTRAVPRTPQDVPFLDDMRRLYTHQKRCFISPTPLSLEHFMTTLSVITAPSTTAFHLANRLLLDADKFVLLPTRTTYTAYFTVCHVNNAMQFAMARYTDAVQALQLPVDAPMLTALLKGLNESGYVEEAVSLLSRIGHVAVSTPLLNASLETLLLSEQALACFSLYDAMRGSSVKPNAETYTLLLLACEKSQQWRRVTAILAEMQRRRVRGNEQTLNLLLKGLLQERLHSYAAQLYHTMLAKKVPLWPALELGVRPLLR”, which “soluble on expression in E. coli” value is on record?
**A.** not soluble

**Q.** Which “soluble on expression in E. coli” value does the source give for “MDFKYDVIVIGAGHAGCEAAAAAANLGSKTCLITMDMNKIGQMSCNPAVGGIAKGQIVREIDALGGQMGLVTDETAIQFRILNRSKGPAMWSPRAQCDRAKFIWSWREKLENTPNLHIWQDTVCELLVENGEVVGLVTLWGVTFKAKCIVLTAGTFLNGLMHVGRHQLPGGRMAEPASYQLTESIARHGIAYGRMKTGTPVRIDARSIHFDLMDTQDGECDFHKFSFMNTSTRHLKQLQCWTCYTNEEVHRILREGLPDSPLFNGQIQSIGPRYCPSIETKIVTFPDKEQHQLFLEPEGETTQELYLNGFSSSLPMDIQIAALKKVPAFKDIVIYRPGYAIEYDYFDPTQLKHSLESKIIKNLFFAGQVNGTTGYEEAGGQGLIAGINAHINCHGGEAFTLARDEAYIGVLIDDLVTKGVDEPYRMFTSRAEYRILLRMDDADMRLTERAYHLGLAREDRYQLMKTKKEALEQIVNFAKNYSMKPALINDALEKLGTTPLRQGCKLIEILNRPQITIENIAEHVPAFQRELEKATAADSDRKEEILEAAEILIKYQGYIDRERMIAEKLARLESIKIKGKFDYASIQSLSTEARQKLVKIDPETIAQASRIPGVSPSDINVLLVLSGR” here?
**A.** not soluble

**Q.** For “MAHHHHHHMGFPAVPFVEDKNDAEILRDEADDEFASYFKEGRKPKILITTGEHPCFRTKLFVKEALWLFPNSIYRPRKKYNLKEITQFCINREFTDLIVVTDRLKEPYNLIISHLPEGPTAMFRVSNFMTHAQLKDPAPRTEHYPELIFKNFDTRLGRRINRLLECLFPATRDYEGRAVATFHNQRDYIFMRTHRYIFDSLDAVRIQEMGPRFTLRLLSLQSGTFDTQFGEYEWFRKKEHDDDKLEWYL”, which “soluble on expression in E. coli” value is on record?
**A.** soluble

**Q.** With “MTISFNTVPSNTLVPLFYAEMNNSAANTAVTSAPALLIGHASNDAAIEVNSLVLMPSADYARQICGAGSQLARMVEVYRQTDPFGELYVIAVPEARGAAATVRVTVAGEAEESGTLSLYVGRSRVQVPVVNGDDATAVATAIKEAVNGVITLPFTASSDAGVVTLTARHKGLYGNELPVCLNYYGSGGGEILPAGLRVVTEVGAAGSGAPDLTAAVAAMGDEAFDFIGLPFNDAASINMMMTEMNDSSGRWSYARQLYGHVYTAKLGTLSELVGAGDMHNQQHITLAGYEKETQSPVDELVASRLAREAVFIRNDPARPTQTGELVGMLPAPKGKRFIMTEQQTLLSHGVATAYVEGGTLQIQRSVTTYKKNAYGVADNSYLDSETLHTSAYVLRKLKSVITSKYGRHKLANDGTRFGPGQAIVTPAVIKGELLATYRQMERAGIVENYDLFKQYLIVERDADNPNRLNTLFPPDYVNQLRVFAVVNQFRLQYSEESA” as the sequence, how does the “soluble on expression in E. coli” value read?
**A.** not soluble
